Reference: patent publication US12077763B2, “RNA-based control of powdery mildew” (Greenlight Biosciences, Inc., priority 2021, dated 2024)

B1: GS1846: dsRNA trigger SEQ ID NO 135; gene target Calcium-transporting ATPase 2 (nucleic acid)
chain: AGACCTTCGGGTACTGCTACAACAATTACAGTGACTGTCACAATGAAAATTTGCAGAAATTGCTGACCTTTAACGGTTGGTGTAGCATCATTGTTAGGTAGTCTAGCCAGAAACTCAATGAATAAGACTGTAAATAATAATAGACCAGCTCCTCCTCCAAGTTTAGCTATATACTCTGCTAAATTGTTCAATTTTGACTGTAATGGCGTGATTTCCGGATCTTCACGGAGCGACATTAATGTTTTCCCATAACTAGAGTTTACACCAGTTGAAGTAACTAAAAATGTACCCACACCTTCAGTGACAGTAGCCCCAGACAAAATAAATGGATCTAATTTTTCTAGCTTTTCGTGGTTCGAGATAGCAGCATAAACTTGGTCTGCCGGATGCTTGCGAATAATATCGGACTCGCCAGTTATTTGAGACTCATCACATCTAAGATTATGCCCTCCAATAAAAATTCCATCAACAGGAATCATGTCGCCAGGTTCAAGATGTAAAACATCGCCTACAAGAACATCATAGATGGATATTTCCGAAGTTTTCCCGGAACGAGTCACATTTACAT
B2: GS1845: dsRNA trigger SEQ ID NO 191; gene target Singe-stranded TG1-3 DNA-binding protein (nucleic acid)
chain: CAGATACTGCCCAAACTACCTTCATAATTTTCCGAGCTACACACCAGAACCTCGAGTATTGACATTACGGAATCATCTCACCATTTAAAAGTTGCGGTTTAACTTAAGCTGTAGCCGCAACAGTTTCAGCTGTCCCAGCTAGTCCTTCTGATTGAAGTTTATCATTAGTAATCCCTTTAGCGATGGCGCCATTAGTACCTTCGGTTGAGTTGCCAACATTAGATACTTCGCCAGCACCATCAGATACATGTGTAGTTAATTCTTCAGAGGTCTTGTCCGGACTATCTATTGCGATCTTTACTGCAATCTCACGACCTTGAACTTCTTTTCCATTCATTTCGGCAACAGCCCTATTTTGAAGTTCATTAGATGCTAAGTTCACAAAGCCAAACCCACGGCCTTTCCGAGGTTCGTTGCGGGCCTGAAGCTTTTTAACCATGAATTTTGGAATAGGACGCAGAGCAATTTTGGCAGATACTGGTTCGTAATCGGCAAATAGTTCCTTTAACTTTTCCTCGGATAAGTCATAAGGAAGATTGGCAACCATAACTTTTGTCTTAGATGGAAC
B3: GS1850: dsRNA trigger SEQ ID NO 198; gene target Ubiquitin-conjugating enzyme E2-34 kDa (nucleic acid)
chain: TCGTCATCCTCGTCTTGTTCAAAATCATAGTTATCATCGTCTGAGCTCTCGCTGGTACCGAACTCATCCTGATCATCACTCTCGTTCCAGAAATCATCGTCATCATTAATTTGCGGAGGAGGCGCCTCAATTAATGTTTTTGGCATCACAAAACCCTCCGGTATATCTCTCATAGAAATTCTTACTGTCTCCAAAGCCCGCTGTTTGTAAGCCTCCAGGTTATCCCGATACATAACGCTGGCATCAACATTTGCAGGGGAGGTAATCTCAGGGTCATCTAGTAAGAGAAGAATAGAGCGGAGAACACTTTCAACACTCTGAATTGATGACCAGCGCTCACAAGCAAGCTCTCCAGATTGTTCATCATCTCCAGCAGCGTGTAGTATTGAGATGCAAACCCTGCCATCAGGATATATATTTGGATGGTAAATAGGTTGCAAGAATTTGAAGGTCGGAGGAGCATAAGGATATTTATCAGTAAAACCCATTTCAGCCTTAAAATAAGCCCCATCGAAAGCACTTTCTGGGTTGACTACTATTAGAGCGATTAACCACTTGAA
B4: GS1839: dsRNA trigger SEQ ID NO 194; gene target Thioredoxin (nucleic acid)
chain: CTGACCGGGGCGCTATTACGATTAAATGAGCTGTTTTCCCCAGCGCTATAAGCATCCAGGGAGAATAAGGTTACAAAATATAATCCGAAAAAAGATAAAAAAGTATTTATCAATTGTTTCAAATCGAATGGCTTAGACAACTGTGTACTCGGACTCTTAGTACTCCCTAGAGTTCGTCCTTCTGAGGTATATGATAGACCTTCTAGGCCTGCAAGTCTGATGACAGACTCGATAGCAGTTCTTAAAGTAGACTGATCAGCGCCACGGATCGTATTGGCAATAGAGCCAGATCGAAAGATAATGAAGCTGGGAAGTGCTCTAACTCCATAACGCTGAGAAATATCCTGGTGATTGTCTACATTGACCTTGACAAAGGTGATCCTGTTCGGTTTCGAGTATTTGGAAGCAAGACTTTCGAAGGTGGGAGCAATAGCATTACATGGGCCGCACCAGTCGGCATAAACTAACCCAGCCATTAGTAGATTTAGTTAATCGGTGACGACTACTTTTGAAGAGTTCAAAATTTTGTCAAACTGAGATGAGGATCTGATACGGATAGACATGCTTTCTTTCTGTTCAA
B5: GS1840: dsRNA trigger SEQ ID NO 196; gene target Ubiquitin-conjugating enzyme E2-16 kDa (nucleic acid)
chain: TTGACTCTAGTTTTAAATACACATAAATGTTTGCTCAAACTATCTAGAGATTTTGCGTCTTGTAAAAAAATACTATATATGAAATATTATTGTGTACTATTGATGTATGAACTCGATGTGAGGTTTAAAATCTTATTGCTGCCATAGATAATCAAAAAATTATATTAATCCTATCCTTTTGGAACGATTCCTAATAGCAGATGTGTGTTCGTCTCTGTCCTTTGAATGACTCATTTCAGTCCAAATCTTCGTTGCTAATTCATCCACTCATTTCATAGCATATTTTTTTGTCGCTTTAACCGCCTCTTCATTAAATTCATTCCTGTTATTCCTGTATCTATCTGCTAATGCCGTTTCTACCGCATCATCAAGTACCGGCTCGGTCAGCATTTGCTGCGTTGCCATCAAAATATTGATGATTCGAGATGATGGTTTCCAGGCATCTGGTTTGAGAGCACCAATACACATACTACCCTGCTCATCAAAAGTCACATTTGGATGGTAGATACGAGTTTTGAACGATAGTTTTGGTGGCTTAAAAGGATAGTCTGAGGGGAGCGTTAAAAGAAGTTCAAAGTTA
B6: GS1849: dsRNA trigger SEQ ID NO 143; gene target Chitin synthase 8 (nucleic acid)
chain: TTGAGAAGCAGCCAACCATGTATTAACAACTAAGCTAGTGCTTGCATCAAGTTTATATGATTGCGTAGACGTGTAAGCAGTATGGATTGAGTTTAGGAGAGTAGTCGATGAGACTTGCGCTGGAGGTTGAGAAGTAGAATTGTTATTTCGAACACCTCCATACGCTGAAGAGGTAGTTGAATAGATAGACATCCGGTGAGTTCCAGTCATTTTATGAAGAGTGATCGAGTTTTTAGACCTTTCCACGTATGGATATTTAAGGTATGTAAATGAGTCAATTCAAAGTCACAAGATTCTCGATCAGTCGATTGATTGGCTTATTGACAATATTCTTTAGCCGAAATCTTAGACAATGGCTTGACAGAATTAATGTCTGGTCTTCGAAGTATCCAGTTGGTGTGTAGCAGATAACTTCGGTATAGTTGTAGAAATGGAAAACAAACCGCAAAAGACAGTCTTGTATCGACCGTGAGGCCGACAGTAGGAGAAATTCAATGCTATTGAGAAATTGAACAACCAAAAAGCGAAAGTAGGGTAACAAGTTTCGACTCACAGACCTA
B7: GS1848: dsRNA trigger SEQ ID NO 134; gene target ADP-ribosylation factor-like protein 3 (nucleic acid)
chain: CACCGCCCATAGCTCCTTCAAAAACGTGTTTGACAAATCCCTCTTTGATTCGTACCACTTCAACGCAATCTTCACGATCTTGCTTATTTGCTAATATCAACAATGGTACACCGTCAATTTCTCCATTGACCAAGACTTCCTCCAGAGCCAATCGACACTCTTCAAGGCGACCCGACTCATCATGCTCCAAATCTCCATCACCAATCTCAGTGCTATCAATGAGGAAAATAATGGCGTGGCATGATCGATAGTAAGATTTCCATAGTTTGCGAAGAGATTCCTGACCACCTACATCCCAAAGCTTAAGGTACATGTCAGGCAGCGTAATAGTGCTCACATTTTGTCCGACTGTAGGTCCCGTATTTATTTTGGGTGCAGGCGCATGAGGCAGGAACAGGAATTTAACTTGTTCGTGAAAAGTTGTCTTGCCGGCGTTATCAAGTCCCAGCAAAAGAACCGAGTATTCTTCTTTGCGCGTTGCGTAGTGGTAGAGACCCTTAACCAAATGATACATGTAGGTTTAGATCTACATAAATGGAGAAAGAAATCTTAATTAGAATGG
B8: GS1843: dsRNA trigger SEQ ID NO 184; gene target Ubiquitin-like protein SMT3 (nucleic acid)
chain: ATAAACCTGCCTTAGATACTAAATCAGGAGTTGGCGTTTTATGGGATTCTATTAGAGTTGTAAATTTCAAAGATACTTTGATTGGATTTTCTTAGATTAACCTCGACGAGAATCGATTTTCTAGATTTTTGGCTAAATCATACGAATTCAAATTTTCTTAGTAAATTGGACAATGCGCGCCGTAAACATATCGGGATGAAATTTTTTAATAATAAAATCAATTGAAAATAATAAATTTATATCCTATTTAATCACCGCCAACAAGAAGTTCGTTTTCCTTACCTACCTAGAATTAGTTTTTAGATATCGTTCGATGTTTCGTGAATTTCAAATCCAGATGTTGCCGCCGATTTGTTCTTGATGCACCTCTAGCGTATCTCCATCTGCCATATCGAGAAACTCAGGACTATCAGTTTGTTGAACACGACTCCCTTCAAATAAGAATCGAACAGAAGAAAGTGATTTCCCTTGCCTCTCACAGAACGCGTCCATCAATTTCTTAAGTGGTGTTGTTCGTTTAATTTTGAAGAAGACTTCATTATTGTTATCTGTAACCTTGATATTTAAATGTTCA
B9: GS1842: dsRNA trigger SEQ ID NO 130; gene target AP-1 complex subunit gamma-1 (nucleic acid)
chain: GCCAATGCCTTGAGCGTCTGAACAAGACTTCCAGTGAGTGGTCTAAACTTCTCTACTATATTCTCTTCACCTTCTTCATCAGCTTCTATGTCGGCCTCGCAAAGGCTAGTGACAAGTGTCAAGCCACAAAGGAGAACTCCATGATTTCGATCTGAAATAAGTGTTTCTGCTTTTTCGAAGAAATGCTCTTGAAGATCTGGCACTTTCTTGCAAATACGCATAGCACATAGAGCAGCCTTCTTACGAATATATGGGTTTGCTGTGGAAAGGAGATTTTCTATCTCTGGAAAGAGATCTCTTGACATTTCGATTGATGCGATGTTGCCTAGCGTACAGAGGGCTAGTCCGACTATGTATTGATTAGAGTGATTGAGATCGTTCTTTAAGGAGTTTGTAACTAAGGTAAGAACCTCTTGATTTTCGTCTAAAAGCAACATGGTCCCTAAGTAACCAAGGCGTTTGTCGGCGAAACGAGGAGACGCAAGTAATTTAAGGCATTCTATCTGGCCAAAGTGGGTTCTTTCCCCAAGTGTGAAGAGATATAACAACTTTGCAACGTTATTACGTCTGACATTG

Tested on: E. necator
Experiment: Leaf disc assay, dry inoculum (settling tower), decrease in disease severity / hyphal growth (Example 2)
Conditions: decrease in disease severity (hyphal growth) relative to untreated control, value ± SE; for % decrease =/− SE TP1: time point 1 (untreated control hyphal growth ≥50%); for % decrease =/− SE TP2: time point 2

| Molecule | % decrease =/− SE TP1 [%] | % decrease =/− SE TP2 [%] |
| --- | --- | --- |
| B1 | 22 ± 5 | – |
| B2 | 23 ± 6 | 24 ± 6 |
| B3 | 13 ± 6 | 0 ± 6 |
| B4 | 20 ± 7 | 18 ± 7 |
| B5 | 21 ± 6 | 11 ± 10 |
| B6 | – | 5 ± 8 |
| B7 | 18 ± 8 | 7 ± 8 |
| B8 | 20 ± 5 | 16 ± 8 |
| B9 | 6 ± 7 | – |
